The results in this text go back to article PMC10786891, “Massively parallel profiling of RNA-targeting CRISPR-Cas13d”.

The chains are these.
T1: EsCas13d, nuclease-dead (Eubacterium siraeum, UniProt B0MS50, R295A;H300A;R849A;H854A)
T1 sequence: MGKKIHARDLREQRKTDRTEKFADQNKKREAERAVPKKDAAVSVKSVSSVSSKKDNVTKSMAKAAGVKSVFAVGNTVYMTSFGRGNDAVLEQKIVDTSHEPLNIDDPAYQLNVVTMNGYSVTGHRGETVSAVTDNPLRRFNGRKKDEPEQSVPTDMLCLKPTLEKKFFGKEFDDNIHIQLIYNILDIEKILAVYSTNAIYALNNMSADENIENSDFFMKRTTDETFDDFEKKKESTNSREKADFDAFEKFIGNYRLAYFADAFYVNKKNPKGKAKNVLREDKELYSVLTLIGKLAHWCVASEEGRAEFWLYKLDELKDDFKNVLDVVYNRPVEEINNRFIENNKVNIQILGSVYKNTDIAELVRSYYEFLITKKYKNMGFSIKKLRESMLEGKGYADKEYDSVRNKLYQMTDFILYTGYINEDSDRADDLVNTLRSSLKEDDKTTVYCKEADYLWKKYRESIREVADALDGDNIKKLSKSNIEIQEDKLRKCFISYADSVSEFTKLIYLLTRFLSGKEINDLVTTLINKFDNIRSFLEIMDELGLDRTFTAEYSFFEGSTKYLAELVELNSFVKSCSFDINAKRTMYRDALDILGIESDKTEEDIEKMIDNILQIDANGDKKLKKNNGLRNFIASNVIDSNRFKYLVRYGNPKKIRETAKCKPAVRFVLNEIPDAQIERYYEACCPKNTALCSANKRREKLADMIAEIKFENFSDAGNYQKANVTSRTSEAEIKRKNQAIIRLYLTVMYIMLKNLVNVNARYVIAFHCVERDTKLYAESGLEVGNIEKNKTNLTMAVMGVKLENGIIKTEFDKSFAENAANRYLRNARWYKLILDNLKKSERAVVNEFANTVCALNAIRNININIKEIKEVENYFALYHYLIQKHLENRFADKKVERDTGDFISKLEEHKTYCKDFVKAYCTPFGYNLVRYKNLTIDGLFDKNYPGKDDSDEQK

B1: target 1 insG 3' of 22,insC 3' of 14 (mixed)
RNA 1: CACCCGUGCAAAAAUGCAGGGGUCUAAAACUGAGCGGAUAACCUCUCUAUGG
RNA 2: GGGAAUGGAUCCACAUCUACGAAUUCGUACGCAUAGAGACGGUUAUCCGCUCACCGAGAUCGGAAGAGCACACGU
B2: target 1 MT 5'PFS GGU 3'PFS UCC (mixed)
RNA 1: B1 RNA 1
RNA 2: GGGAAUGGAUCCACAUCUACGAAUUCGGUCCAUAGAGAGGUUAUCCGCUCAUCCAGAUCGGAAGAGCACACGU
B3: target 1 MT 5'PFS UAG 3'PFS UAC (mixed)
RNA 1: B1 RNA 1
RNA 2: B2 RNA 2 with G27U, G28A, U29G, C53A
B4: target 1 MT 5'PFS ACA 3'PFS ACC (mixed)
RNA 1: B1 RNA 1
RNA 2: B2 RNA 2 with G27A, G28C, U29A, U52A
B5: target 1 MT 5'PFS AAU 3'PFS AUC (mixed)
RNA 1: B1 RNA 1
RNA 2: B2 RNA 2 with G27A, G28A, U52A, C53U
B6: target 1 MT 5'PFS UCA 3'PFS UAA (mixed)
RNA 1: B1 RNA 1
RNA 2: B2 RNA 2 with G27U, G28C, U29A, C53A, C54A
B7: target 1 MT 5'PFS UCA 3'PFS UAU (mixed)
RNA 1: B1 RNA 1
RNA 2: B2 RNA 2 with G27U, G28C, U29A, C53A, C54U
B8: target 1 MT 5'PFS UAA 3'PFS CUC (mixed)
RNA 1: B1 RNA 1
RNA 2: B2 RNA 2 with G27U, G28A, U29A, U52C, C53U
B9: target 1 MT 5'PFS ACU 3'PFS ACA (mixed)
RNA 1: B1 RNA 1
RNA 2: B2 RNA 2 with G27A, G28C, U52A, C54A
B10: target 1 MT 5'PFS GCU 3'PFS ACC (mixed)
RNA 1: B1 RNA 1
RNA 2: B2 RNA 2 with G28C, U52A
B11: target 1 MT 5'PFS UGC 3'PFS UUC (mixed)
RNA 1: B1 RNA 1
RNA 2: B2 RNA 2 with G27U, U29C, C53U
B12: target 1 MT 5'PFS ACA 3'PFS ACA (mixed)
RNA 1: B1 RNA 1
RNA 2: B2 RNA 2 with G27A, G28C, U29A, U52A, C54A
B13: target 1 MT 5'PFS UAA 3'PFS CUG (mixed)
RNA 1: B1 RNA 1
RNA 2: B2 RNA 2 with G27U, G28A, U29A, U52C, C53U, C54G
B14: target 1 MT 5'PFS GGC 3'PFS UCA (mixed)
RNA 1: B1 RNA 1
RNA 2: B2 RNA 2 with U29C, C54A
B15: target 1 MT 5'PFS GAG 3'PFS UUA (mixed)
RNA 1: B1 RNA 1
RNA 2: B2 RNA 2 with G28A, U29G, C53U, C54A
B16: target 1 C2A,A18C (mixed)
RNA 1: B1 RNA 1
RNA 2: B2 RNA 2 with G28U, U29A, A34C, C50A, U52C, C54G
B17: target 1 MT 5'PFS ACA 3'PFS ACU (mixed)
RNA 1: B1 RNA 1
RNA 2: B2 RNA 2 with G27A, G28C, U29A, U52A, C54U
B18: target 1 U11C,A18C (mixed)
RNA 1: B1 RNA 1
RNA 2: B2 RNA 2 with G28U, U29A, A34C, U41C, U52C, C54G
B19: target 1 MT 5'PFS UGC 3'PFS CAC (mixed)
RNA 1: B1 RNA 1
RNA 2: B2 RNA 2 with G27U, U29C, U52C, C53A
B20: target 1 MT 5'PFS GAG 3'PFS UUC (mixed)
RNA 1: B1 RNA 1
RNA 2: B2 RNA 2 with G28A, U29G, C53U
B21: target 1 insA 3' of 17,insU 3' of 5 (mixed)
RNA 1: B1 RNA 1
RNA 2: GGGAAUGGAUCCACAUCUACGAAUUCGUACCAUAGAAGAGGUUAUCCGUCUCACCGAGAUCGGAAGAGCACACGU
B22: target 1 MT 5'PFS GUC 3'PFS CGC (mixed)
RNA 1: B1 RNA 1
RNA 2: B2 RNA 2 with G28U, U29C, U52C, C53G
B23: target 1 MT 5'PFS UGC 3'PFS UUG (mixed)
RNA 1: B1 RNA 1
RNA 2: B2 RNA 2 with G27U, U29C, C53U, C54G
B24: target 1 MT 5'PFS UCA 3'PFS UAG (mixed)
RNA 1: B1 RNA 1
RNA 2: B2 RNA 2 with G27U, G28C, U29A, C53A, C54G
B25: target 1 MT 5'PFS UAG 3'PFS UAG (mixed)
RNA 1: B1 RNA 1
RNA 2: B2 RNA 2 with G27U, G28A, U29G, C53A, C54G
B26: target 1 MT 5'PFS GUC 3'PFS CGG (mixed)
RNA 1: B1 RNA 1
RNA 2: B2 RNA 2 with G28U, U29C, U52C, C53G, C54G
B27: target 1 MT 5'PFS UGC 3'PFS CAA (mixed)
RNA 1: B1 RNA 1
RNA 2: B2 RNA 2 with G27U, U29C, U52C, C53A, C54A
B28: target 1 MT 5'PFS UCA 3'PFS CUC (mixed)
RNA 1: B1 RNA 1
RNA 2: B2 RNA 2 with G27U, G28C, U29A, U52C, C53U
B29: target 1 MT 5'PFS GCU 3'PFS ACG (mixed)
RNA 1: B1 RNA 1
RNA 2: B2 RNA 2 with G28C, U52A, C54G
B30: target 1 MT 5'PFS CCU 3'PFS CUU (mixed)
RNA 1: B1 RNA 1
RNA 2: B2 RNA 2 with G27C, G28C, U52C, C53U, C54U
B31: target 1 MT 5'PFS GUC 3'PFS CGA (mixed)
RNA 1: B1 RNA 1
RNA 2: B2 RNA 2 with G28U, U29C, U52C, C53G, C54A
B32: target 1 MT 5'PFS GCU 3'PFS GAA (mixed)
RNA 1: B1 RNA 1
RNA 2: B2 RNA 2 with G28C, U52G, C53A, C54A
B33: target 1 MT 5'PFS UCA 3'PFS CUA (mixed)
RNA 1: B1 RNA 1
RNA 2: B2 RNA 2 with G27U, G28C, U29A, U52C, C53U, C54A
B34: target 1 MT 5'PFS ACG 3'PFS AAG (mixed)
RNA 1: B1 RNA 1
RNA 2: B2 RNA 2 with G27A, G28C, U29G, U52A, C53A, C54G
B35: target 1 MT 5'PFS GCA 3'PFS CUA (mixed)
RNA 1: B1 RNA 1
RNA 2: B2 RNA 2 with G28C, U29A, U52C, C53U, C54A
B36: target 1 MT 5'PFS GCA 3'PFS CUU (mixed)
RNA 1: B1 RNA 1
RNA 2: B2 RNA 2 with G28C, U29A, U52C, C53U, C54U
B37: target 1 MT 5'PFS CCU 3'PFS CUG (mixed)
RNA 1: B1 RNA 1
RNA 2: B2 RNA 2 with G27C, G28C, U52C, C53U, C54G
B38: target 1 MT 5'PFS GCU 3'PFS ACU (mixed)
RNA 1: B1 RNA 1
RNA 2: B2 RNA 2 with G28C, U52A, C54U

Numbering of substitutions follows the chain as printed. Names and notes keep the numbering of the source.

The data set addresses T1, EsCas13d, nuclease-dead. Description: crRNA (strand 1, pre-loaded); Mg2+; 40 mM Tris-HCl pH 7.5, 150 mM NaCl, 6 mM MgCl2, 1 mM DTT, 0.1% Tween-20, 0.2 mg/ml BSA; 25 C; 10 min per concentration, then washed. The following applies: tags: His6-TwinStrep-SUMO cleaved; N-terminal SNAP kept (SNAP-Surface 488); label: 3' end held by stalled T7 RNA polymerase.
In turn, B1 returned a Kd of 41 ± 17 nM.

B2 displayed a Kd of 21 ± 5.5 nM.

For the molecule B3, the dissociation constant Kd worked out at 16.8 ± 2.05 nM.

In the case of B4, the Kd is around 47.5 nM.

Take B5: binding was put at a Kd of 28.5 ± 12 nM.

B6 returned a Kd of 9.45 ± 3.3 nM.

In turn, B7 displayed an equilibrium dissociation constant (Kd) of 11.5 ± 2.3 nM.

B8 gave a dissociation constant Kd of 74 ± 28 nM.

As for B9, the equilibrium dissociation constant (Kd) is around 90 nM.

As for B10, the Kd worked out at 43 ± 14.5 nM.

Regarding B11, the Kd came to 14 ± 3.7 nM.

For the molecule B12, the Kd was around 31 nM.

As to B13, the Kd stood at 25.8 ± 5.25 nM.

B14 registered a Kd of 17.1 ± 3.7 nM.

For the molecule B15, the Kd came to 36 ± 9 nM.

The molecule B16 gave a Kd of 47.9 ± 3.3 nM.

B17 displayed a Kd of 9.3 ± 2.9 nM.

On to B18, for which the Kd came to 75 ± 10 nM.

Molecule B19 had a Kd of around 65 nM.

Consider B20, for which the Kd turned out to be 37 ± 11 nM.

As for B21, the Kd was determined as 25.8 ± 2.8 nM.

B22 had a Kd of 22 ± 4.5 nM.

Regarding B23, the Kd worked out at 10.7 ± 2.05 nM.

The molecule B24 came in with an equilibrium dissociation constant (Kd) of around 50 nM.

As for B25, the Kd came to 73.5 ± 28 nM.

For B26, binding was characterised by a dissociation constant (Kd) of 28.5 ± 7 nM.

For the molecule B27, the Kd amounted to 63 ± 28.5 nM.

Take B28: the affinity, expressed as Kd, was 12.9 ± 3.1 nM.

As for B29, the affinity, expressed as Kd, was 43.5 ± 10.5 nM.

B30 showed a Kd of 6.65 ± 1.95 nM.

The molecule B31 displayed a Kd of 19.5 ± 4 nM.

Molecule B32 had a dissociation constant Kd of around 110 nM.

As for B33, the Kd was 9.45 ± 2.55 nM.

For the molecule B34, binding was characterised by a dissociation constant (Kd) of 26.5 ± 11 nM.

Regarding B35, binding was put at a Kd of 18.4 ± 4.7 nM.

As for B36, the Kd came to 11.8 ± 2.55 nM.

With B37, binding was put at a Kd of 21 ± 7 nM.

As to B38, the Kd stood at 33 ± 11 nM.

What is called Kd is the equilibrium constant for the complex coming apart. Low readings indicate tighter binding, high ones weaker binding.
